According to IntAct's records for PubMed 24944246:

B1: Krueppel-like factor 10 (Homo sapiens), Q13118 (parent)
chain: MLNFGASLQQTAEERMEMISERPKESMYSWNKTAEKSDFEAVEALMSMSCSWKSDFKKYVENRPVTPVSDLSEEENLLPGTPDFHTIPAFCLTPPYSPSDFEPSQVSNLMAPAPSTVHFKSLSDTAKPHIAAPFKEEEKSPVSAPKLPKAQATSVIRHTADAQLCNHQTCPMKAASILNYQNNSFRRRTHLNVEAARKNIPCAAVSPNRSKCERNTVADVDEKASAALYDFSVPSSETVICRSQPAPVSPQQKSVLVSPPAVSAGGVPPMPVICQMVPLPANNPVVTTVVPSTPPSQPPAVCPPVVFMGTQVPKGAVMFVVPQPVVQSSKPPVVSPNGTRLSPIAPAPGFSPSAAKVTPQIDSSRIRSHICSHPGCGKTYFKSSHLKAHTRTHTGEKPFSCSWKGCERRFARSDELSRHRRTHTGEKKFACPMCDRRFMRSDHLTKHARRHLSAKKLPNWQMEVSKLNDIALPPTPAPTQ
partner: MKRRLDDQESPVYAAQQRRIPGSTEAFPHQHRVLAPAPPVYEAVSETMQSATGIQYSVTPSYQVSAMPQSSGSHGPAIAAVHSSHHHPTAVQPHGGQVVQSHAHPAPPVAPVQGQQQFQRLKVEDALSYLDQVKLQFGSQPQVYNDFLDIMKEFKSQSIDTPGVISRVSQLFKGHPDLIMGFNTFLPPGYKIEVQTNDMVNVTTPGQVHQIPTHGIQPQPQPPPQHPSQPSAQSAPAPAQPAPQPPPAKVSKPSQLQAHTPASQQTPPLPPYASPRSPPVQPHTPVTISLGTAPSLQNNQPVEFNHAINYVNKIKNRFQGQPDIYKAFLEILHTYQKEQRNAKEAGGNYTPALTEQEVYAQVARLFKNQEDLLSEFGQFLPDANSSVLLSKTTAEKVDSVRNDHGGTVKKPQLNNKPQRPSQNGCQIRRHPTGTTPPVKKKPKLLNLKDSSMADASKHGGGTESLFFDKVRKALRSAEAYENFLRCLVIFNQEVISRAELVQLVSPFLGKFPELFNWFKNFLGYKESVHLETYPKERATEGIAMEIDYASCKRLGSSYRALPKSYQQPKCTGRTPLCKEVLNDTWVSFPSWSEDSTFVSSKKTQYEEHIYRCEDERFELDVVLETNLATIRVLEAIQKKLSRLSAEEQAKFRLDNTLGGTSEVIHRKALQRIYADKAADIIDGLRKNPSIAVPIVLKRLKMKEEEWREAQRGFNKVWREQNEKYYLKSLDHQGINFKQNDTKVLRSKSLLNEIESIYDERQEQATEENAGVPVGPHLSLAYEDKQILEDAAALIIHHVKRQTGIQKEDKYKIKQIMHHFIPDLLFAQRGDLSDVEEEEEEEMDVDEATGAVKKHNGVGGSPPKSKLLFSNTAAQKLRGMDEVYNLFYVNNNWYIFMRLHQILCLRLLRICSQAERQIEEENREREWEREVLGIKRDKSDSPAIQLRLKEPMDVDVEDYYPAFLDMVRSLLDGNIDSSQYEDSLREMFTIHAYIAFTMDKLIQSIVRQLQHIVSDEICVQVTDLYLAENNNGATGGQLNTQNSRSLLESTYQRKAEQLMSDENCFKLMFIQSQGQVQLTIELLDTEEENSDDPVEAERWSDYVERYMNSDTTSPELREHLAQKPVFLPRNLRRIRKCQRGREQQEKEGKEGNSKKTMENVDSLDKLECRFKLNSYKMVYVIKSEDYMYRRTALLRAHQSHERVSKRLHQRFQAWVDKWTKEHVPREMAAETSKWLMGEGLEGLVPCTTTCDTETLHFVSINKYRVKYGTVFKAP

Variants of: B1
Details: with sin3a_human SIN3A

Row | effect of a mutation on the interaction | Variant
1 | disrupting interaction strength | E40P;A41P
